Results on two substances are retold here after paper PMC11045720.

Assay [1] has as its target Alcohol dehydrogenase from baker's yeast (baker's yeast) (UniProt P00330). Kind of assay: mass photometry (native, nMP); samples diluted in their native buffer to 100-400 nM, then drop-diluted to 10-40 nM in a PBS droplet; room temperature (18 °C); triplicates.
Assay [2] shares this target. Kind of assay: cross-linking; DSBU at 25:1 to 1000:1 molar excess on 1 mg/mL protein, 45 min at room temperature (20 °C), quenched with Tris HCl; read by denaturing mass photometry (5 min in 5.4 M urea) and SDS-PAGE.
The target of assay [3] is Human 20 S proteasome (human). Briefly: cross-linking; formaldehyde 0.05% to 1% (vol/vol) on 1 mg/mL protein, 20 min at room temperature; read by denaturing mass photometry.
The target in assay [4] is Human 20 S proteasome (human). Kind of assay: mass photometry (native, nMP); samples diluted in their native buffer to 100-400 nM, then drop-diluted to 10-40 nM in a PBS droplet; room temperature (18 °C); triplicates.

In assay [1], “Alcohol dehydrogenase from baker's yeast (from UniProt P00330 1-348) (enzyme)” showed a percent of detected species that are monomers (nMP) of 46% and a stoichiometry N of 4. For the same substance, the stoichiometry N in assay [2] worked out at 4.

With Human 20 S proteasome (complex), the stoichiometry N in assay [3] came out at 28. Also, in assay [4], the percent of detected species that are monomers (nMP) came out at 51% and the stoichiometry N is 28.
